From PMC8133392
pKd: −log10 of the molar value.

Columns and labels:
Test in all cases: other fluorescence titration
[1] = molecular target: unmodified H3 (aa 1–12) peptide (UniProt P68431)
[2] = molecular target: H3K4ac peptide
[3] = molecular target: H3K4me3 peptide

pKd [1]: 5.37 | pKd [2]: 4.96 | pKd [3]: 5.32
Substance: ZZEF1ZZ2 with H1877 replaced by tryptophan (for tryptophan fluorescence) (domain or fragment)
